According to US20210198647A1, “Enhancers of Neurolysin Activity” (Texas Tech University System, priority 2018, published 2021):

How the values were obtained:
mouse plasma proteins = test: rapid equilibrium dialysis (RED), mouse plasma, 500 ng/mL
[1] = target: N-terminal polyhistidine tagged recombinant rat neurolysin (rat) (UniProt P42676); test: cell-based or functional assay

| Substance | fu in Plasma (fraction unbound) (mouse plasma proteins) | formation of angiotensin-(1-7) from angiotensin I (20 µM), mass spectrometry, 100 µM modulator [1] | formation of bradykinin-(1-5) from bradykinin (20 µM), mass spectrometry, 100 µM modulator [1] | formation of neurotensin-(1-10) from neurotensin (20 µM), mass spectrometry, 100 µM modulator [1] |
| --- | --- | --- | --- | --- |
| His-Trp (peptide) | 0.93 |  |  |  |
| NlnA#1, NSC 374121, L-histidyl-L-tyrosine (peptide) | 0.66 | 6 fold | 2 fold | 3 fold |
| NlnA#2, NSC 523374, D,L-histidyl-D,L-histidine (peptide) |  | 6 fold | 2 fold | 3 fold |
